The text below walks through data of US20240117061A1 (WUHAN YZY BIOPHARMA, published 2024).

Assay [1] concerns the target T1, recombinant human BCMA-his fusion protein (ACRO Biosystem, Cat. No. BCA-H522y) (human, UniProt Q02223 1-54).
T1 construct: extracellular domain; Bought protein; also called huBCMA-his; hu BCMA-his; not shown: His tag
T1 sequence (looked up): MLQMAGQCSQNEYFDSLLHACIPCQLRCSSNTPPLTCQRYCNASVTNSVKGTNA
Put plainly: ELISA, coated antigen. As to the method: (§1) Procedures: huBCMA-his and cynoBCMA-his antigens were prepared into 0.5 μg/mL coating solutions with PBS (pH 7.4). The coating solutions were added to a microplate at 100 μL/well and incubated at 4° C. overnight. The residual coating solution was discarded before 3% BSA was added at 300 μL/well, and the plate was blocked for 3 h at room temperature. The microplate was washed once with PB ST at 300 The stock humanized monoclonal antibody solutions were serially 3-fold diluted to the 11th concentration. The dilutions were added to the microplate at 100 μL/well. After a 1-h incubation at room temperature, the microplate was washed thrice with PBST at 300 The HRP-conjugated 6*His, His-Tag antibody was 25,000-fold diluted with 1% BSA-PBST and added at 100 After another 1-h incubation at room temperature, the microplate was washed thrice with PB ST at 300 μL/well and dried. The TMB chromogenic solution was added at 100 μL. After a 5-min reaction at room temperature, 2 M H2504 was added at 100 μL/well to terminate the reaction. The microplate was placed on a microplate reader (Molecular Devices, SPECTRA Max plus 384) and the absorbance OD450 value was read at 450 nm wavelength.
(In general: ELISA stands for enzyme-linked immunosorbent assay.)

Assay [2] has as its target T2, recombinant cynomolgus monkey cynoBCMA-his (ACRO Biosystem, Cat. No. BCA-052H7) (cynomolgus monkey, UniProt A0A2K5UD97 1-53).
T2 construct: extracellular domain; Bought protein; also called cynomolgus/rhesus macaque BCMA/TNFRSF17 protein; not shown: His tag
Put plainly: ELISA, coated antigen. As for the experimental part: as §1

Assay [3] deals with T3, human BCMA on cells (NCI-H929, U266B1, HEK293 huBCMA) (human, UniProt Q02223 1-184).
T3 construct: whole, on cells; also called cell surface BCMA antigen
T3 sequence (looked up): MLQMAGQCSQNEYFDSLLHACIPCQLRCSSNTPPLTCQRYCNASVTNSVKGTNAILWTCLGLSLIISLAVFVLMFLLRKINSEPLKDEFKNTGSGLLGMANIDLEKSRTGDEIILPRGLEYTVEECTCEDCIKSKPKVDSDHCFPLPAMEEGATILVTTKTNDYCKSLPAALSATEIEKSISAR
Put plainly: flow cytometry on NCI-H929 cells. As to the method:
(§2) Procedures: Preparation of cell suspensions: The cells were resuspended in PBS, and the cell density was adjusted to 2×10⁵ cells/well. Mouse antibodies were added to a 96-well plate at […] and serially 3-fold diluted from 3000 nM. The plate was incubated for 1 h at 4° C. 150 μL of precooled PBS containing 1% of FBS was added into the 96-well plate after the co-incubation with the primary antibody was finished. The mixtures were centrifuged at 300×g for 5 min and the supernatants were discarded. The above procedures were repeated once. The fluorescent secondary antibody PE […] (Biolegend, 409304) was added at 80 μL/well. The plate was incubated at 4° C. for 30 min. 150 μL of precooled PBS containing 1% of FBS was added into the 96-well plate after the co-incubation with the secondary antibody was finished. The mixtures were uniformly mixed with a pipette. The 96-well plate was centrifuged at 300×g for 5 min in a plate centrifuge and the supernatants were removed. The above procedures were repeated once. The cells were resuspended in 100 μL of PBS containing 1% of FBS and detected on a flow cytometry (BD Accuri™ C6).
Background: In flow cytometry, cells or beads pass a laser one at a time.

Assay [4] deals with T4, cynomolgus monkey BCMA on HEK293 cynoBCMA cells (cynomolgus monkey, UniProt A0A2K5UD97 1-183).
T4 construct: whole, on cells
Put plainly: flow cytometry on HEK293 cynoBCMA cells. As for the experimental part:
as §2

Assay [5] addresses T1, recombinant human BCMA-his fusion …. Put plainly: SPR (Biacore T200), anti-His capture on CM5, 1:1 fit. As for the experimental part: (§3) In this example, the antigen-antibody binding kinetics and affinity were determined by the BIACORE method.
(§4) Procedures: The anti-histidine antibody (GE, His capture Kit, Cat. No. 28995056) was conjugated to the Sereis S Sensor Chip CMS to capture the test articles, thus acquiring the binding kinetic and affinity data of the antigen, as an analyte, to the test articles. The initial concentration for detecting the binding of the antigen and the test articles was 10 nM. […] The Start up flushing process (1×HBS-EP+buffer) was performed at least thrice before loading to equilibrate the system. The association and dissociation tendencies between the antigen and the test articles were detected. When the dissociation was completed, a regeneration reagent was loaded for regeneration before the detection of the next concentration was performed. After the detection was finished, the data were fitted by using a 1:1 Binding fitting mode in data analysis software (Biacore T200 Evaluation Software).
(In general: SPR reads the build-up and loss of mass on a sensor chip optically.)

Assay [6] concerns the target T2, recombinant cynomolgus monkey …. The assay is described as above. As to the method: as §3, §4
The target in assay [7] is T1, recombinant human BCMA-his fusion …. Put plainly: competitive ELISA, coated huBCMA-his, competitor APRIL-biotin.
Assay [8] shares this target. Put plainly: competitive ELISA, coated huBCMA-his, competitor 83A10-biotin.
In assay [9] the target is T2, recombinant cynomolgus monkey …. Put plainly: competitive ELISA, coated cynoBCMA-his, competitor 83A10-biotin.

By EC50 is commonly meant the midpoint of the concentration-response curve. Usually Kd stands for the free concentration of one partner at which half of the binding sites on the other are occupied at equilibrium, for simple one-to-one binding. Broadly, the koff is a measure of how fast the partners let go of each other. For orientation: kon means the second-order rate constant of association. Broadly, the IC50 is the concentration at which inhibition is half-maximal.

T2 sequence (A0A2K5UD97 entry or part of it): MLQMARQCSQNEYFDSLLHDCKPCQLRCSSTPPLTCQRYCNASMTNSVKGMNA
T4 sequence (A0A2K5UD97 entry or part of it): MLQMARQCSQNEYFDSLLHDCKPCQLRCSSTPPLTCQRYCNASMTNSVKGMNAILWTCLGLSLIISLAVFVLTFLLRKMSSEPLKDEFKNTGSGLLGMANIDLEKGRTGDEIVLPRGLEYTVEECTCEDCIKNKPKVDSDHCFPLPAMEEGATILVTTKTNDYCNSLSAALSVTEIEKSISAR

B1: humanized antibody hu-mAb3 (VH3+VL3) (antibody, V domains shown)
VH: QVQLVQSGAEVKKPGASVKVSCKASGYTITDYNMDWVRQAPGQGLEWIGNINPHNGGSIYNQKFQGRATLTVDKSTSTAYMELSSLRSEDTAVYYCARGDATLVLDYWGQGTTVTVSS
VL: DIQLTQSPSSLSASVGDRATITCRASKSVSTSGLSYMHWYQQKPGKAPKVLIYLASNLESGVPARFSGSGSGTDFTLTISSVQPEDFATYYCQHSRELPPTFGQGTKLELK
notes: human IgG1/kappa named only as preferred
As for B1, the EC50 in assay [1] is 22.6 pM; in assay [2], 30.3 pM; in assay [3], 8070 pM; in assay [4] it was 3760 pM. Moreover, the Kd in [5] was found to be 399 pM; in assay [6], 256 pM. Further, the koff turned out to be 0.00235 s⁻¹ in [5] and 0.000773 s⁻¹ in assay [6]. Besides, the kon in [5] came out at 5.9e+06 M⁻¹ s⁻¹; in [6], 3.02e+06 M⁻¹ s⁻¹. Moreover, the IC50 in [7] is 0.918 µg/mL; in [8] it was 1.37 µg/mL; in [9], 1.32 µg/mL.
